Tm and t½ mouse data for one molecule are collected here from US20230265152A1, “GLP-1R AGONIST / FGF21 FUSION PROTEINS” (SANOFI, priority 2020, published 2023).

Marks after values point to notes of the source that are not given here.

A short description of data set [1]: Thermal shift assay (DSF, Sypro Orange). As to conditions: Data generated via DSF. The format is physicochemical. The source says:
In addition, for some proteins, a thermal shift assay was applied to analyze thermostability in imitation of differential scanning fluorimetry (DSF or ThermoFluor™) assays (Ahmad S. et al. (2012) Protein Science 21: 433-446; Pantoliano et al. (2001) J. Biomol. Screen 6: 429-440; Niesen et al. (2007) Nat. Protoc. 2: 2212-21). This assay is based on the observation that hydrophobic fluorescent dyes, such as Sypro™ Orange (Life Technologies, cat. No. S6651), increase their fluorescence when they bind to hydrophobic patches on a protein.
Proteins were tested by mixing a solution of each protein in PBS (Gibco) with a 160x solution of Sypro™ Orange (diluted in water from a 5000X DMSO stock as provided by the supplier). The sample volume was adjusted to 20 µL with PBS. Typical conditions contained 0.8 mg/mL protein and 8x Sypro™ Orange in the final mixture, but protein concentrations could be varied between 0.4 mg/mL and 1.2 mg/mL. Samples were dispensed in 96-well PCR plates (BioRad Semi-Skirt 96 white) and shortly centrifuged to remove air bubbles. […] For excitation and quantification of fluorescence, filters for wavelengths of 485 nm and 575 nm were chosen. […] In curves of fluorescence intensity against temperature, the inflection point was chosen as the measure for the melting temperature (Tm).
(In DSF a fluorescence change marks the thermal transition of the protein.)

Data set [2] in a line: Pharmacokinetics after single subcutaneous administration in mouse. The format is in vivo, female C57Bl/6 mice. The conditions noted are these: 0.3 mg/kg s.c.; assay FGF21 intact. The method, then:
Plasma concentrations and pharmacokinetic parameters of GLP-1RA/FGF21 Fc fusion proteins were determined after single subcutaneous administration of 0.3 mg/kg in solution to female C57Bl/6 mice or male Cynomolgus monkeys using three different methods. Blood samples were obtained at time points from 30 minutes to 168 hours after dosing.
Plasma samples were analyzed for the intact FGF21 part of the fusion proteins with an ELISA kit (F1231-K01, Eagle Biosciences, USA). The assay utilized the two-site sandwich technique with two selected antibodies that bound to different epitopes of human intact FGF21. […] For the detection of the immunocomplex, the well was then incubated with a substrate solution in a timed reaction and then measured in a spectrophotometric microplate reader. […]
The concentration of the full-length GLP-1RA/FGF21 Fc fusion proteins in plasma were determined utilizing an ELISA method. […] Following washing 3 times with 300 µL PBS-T 150 µL read buffer was added to the wells.
Plasma samples were analyzed for the intact GLP-1 part of the fusion proteins with a GLP-1 ELISA method. […] Following washing 3 times with 300 µL PBS-T, 150 µL read buffer was added to the wells.
The pharmacokinetic parameters were calculated by the program WinNonlin 6.4 using a non-compartmental model and linear trapezoidal interpolation calculation. […]

B1: 252 (protein)
chain: GHPIPDSSPLLQFGGQVRQRYLYTDDAQQTEAHLEIREDGTVGGAADQSPESLLQLKALKPGVIQILGVKTSRFLCQRPDGALYGSLHFDPEACSFRELLLEDGYNVYQSEAHGLPLHLPGNKSPHRDPAPRGPARFLPLPGLPPAPPEPPGILAPQPPDVGSSDPLSMVGPSQGRSPSYAS
modifications: G-FGF21
For the molecule B1, in data set [1], the Tm was 43.1 * °C. Moreover, the t½ mouse in data set [2] was 42 min.
